{
  "source": "patent US20070141066A1",
  "about": "“Method for Diagnosing, Prognosing and Treating Glioma” (Genentech, Inc., priority 2005, published 2007)",
  "test_system": "neural stem cell lines derived from fetal human brain",
  "assay": "Expression signature (35 signature genes) of neural stem cell lines after BDNF treatment and withdrawal",
  "assay_type": "cell-based",
  "details": "two neural stem cell lines",
  "experimental": "Signal intensity values from Microarray Analysis Suite version were utilized with a scaling factor of 500 for all analysis of microarray data. K-means clustering and agglomerative clustering were performed with the use of Spotfire Decision Site software version 7.3 using Pearson correlation as the similarity measure. For each gene, data was normalized into Z scores prior to clustering. The 35 signature genes used for tumor classification represent the most robust markers for each of three tumor subsets in the MDA survival sample set. Markers of each subset are identified as follows: Each of the 76 samples is assigned to one of three groups based on k-means clustering of expression of the 108 genes most strongly correlated with survival. Using a p value cutoff of 1×10^−4, t tests were utilized to identify all genes whose expression differed between samples in each subclass compared to tumors of other subclasses (see Table A, GDM). For each comparison, we then rank-ordered the 500 probe sets with the smallest p values, by fold change. […] The final 35 signature genes contain 15 PN, 15 Mes, and 5 Prolif markers. […] For statistical comparisons of data presented in FIG. 4 F-I and FIG. 7, log-transformed data was analyzed via t tests corrected for multiple group comparisons. […]",
  "data": [
    {"molecule": "BDNF: the neurotrophic factor BDNF (protein, UniProt P23560 19-247, looked up) Neurotrophic factor BDNF …: APMKEANIRGQGGLAYPGVRTHGTLESVNGPKAGSRGLTSLADTFEHVIEELLDEDQKVRPNEENNKDADLYTSRVMLSSQVPLEPPLLFLLEEYKNYLDAANMSMRVRRHSDPARRGELSVCDSISEWVTAADKKTAVDMSGGTVTVLEKVPVSKGQLKQYFYETKCNPMGYTKEGCRGIDKRHWNSQCRTTQSYVRALTMDSKKRIGWRFIRIDTSCVCTLTIKRGR", "values": [
      {"measurement": "shift of expression signature subclass", "value": "shifted signature subclass from the PN to the Mes class"}
    ]}
  ]
}
